Test results published in paper PMC3592463.
Where two headings read alike, the source gives them in different places.

Columns and labels:
Hfq [1] = target: T1, Hfq (E. coli, UniProt P0A6X3 1-102); assay: EMSA
Tat(44-61) [2] = target: T2, Tat(44-61) (UniProt P04608 44-61); assay: MST
T2 chain: GISYGRKKRRQRRRAHQN

Hfq [3] = target: T1, Hfq; assay: MST
Tat(44-61) [4] = target: T2, Tat(44-61); assay: MST
Hfq [5] = target: T1, Hfq; assay: MST; remark: listed apart in the source

T1 sequence (P0A6X3 whole entry): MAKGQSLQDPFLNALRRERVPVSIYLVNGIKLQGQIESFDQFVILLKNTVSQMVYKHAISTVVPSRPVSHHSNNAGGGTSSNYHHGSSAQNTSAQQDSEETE

Binder: AAUUUAAUGUUUUAUUUAUUA (ssRNA) [J1]
- binding result (Hfq [1]): binds

Binder: AUGUGGAAAAUCUCUAGCAGU (ssRNA) [21R+]
- Kd (Tat(44-61) [2]): 6.3 ± 0.5 µM

B1: JM6 (dsRNA)
RNA 1: GACUCAGUGUCAGAGUCACUG
RNA 2: CAGUGACUCUGACACUGAGUC
- binding result (Hfq [3]): no binding

Binder: AAUUCAAUGUUUUAGUUACUG (ssRNA) [J3]
- binding result (Hfq [3]): binds

B2: ds21R (dsRNA)
RNA 1: AUGUGGAAAAUCUCUAGCAGU
RNA 2: ACUGCUAGAGAUUUUCCACAU
- Kd (Tat(44-61) [4]): 7.4 ± 0.9 µM

Binder: GACUCAGUGUCAGAGUCACUG (ssRNA) [J6]
- binding result (Hfq [3]): no binding

Binder: AAUUUAAUGUUUUAGUUACUA (ssRNA) [J2]
- binding result (Hfq [5]): binds

Binder: AACUCAAUGUCUUAGUUACUG (ssRNA) [J4]
- binding result (Hfq [3]): binds
